Test results published in patent CN105695419A.

Molecular target: His标签蛋白
Assay: ELISA titre of mouse ascites

B1: 杂交瘤细胞株4C9(CCTCC NO. C2015198)分泌的抗His标签蛋白单克隆抗体 (antibody, V domains shown)
VH: EVQLQESGAELMKPGASVKLSCKATGYTFTGYWIEWVKQRPGHGLEWIGEILPGSGSINHNENFKDKATFTADTSSNTAYMQLNSLTTEDSAVYFCAGGGGYWGQGTTLTVSS
VL: EIVITQTPLSLPVSLGDQASISCRSSRSIVHSNGNTYLEWYLQKPGQSPKLLIYKVSNRVSGVPDRFSGSGSGTDFTLKISRVEAEDLGVYYCFQGSHVPLTFGAGTKLELKR
  ELISA效价: 1.28e+06
